From PMC10927090, “Plasmodium falciparum contains functional SCF and CRL4 ubiquitin E3 ligases, and CRL4 is critical for cell division and membrane integrity” (PLOS Pathogens, 2024) come the findings set out here.

Assay [1] concerns the target T1, GST-tagged C-terminal of PfCullin-1 (601-829 aa) (P. falciparum, UniProt Q8IAU5 601-829).
T1 construct: P. falciparum Cullin-1 (PfCullin-1, PF3D7_0811000), C-terminal coding region, residues 601-829, amplified from cDNA, in pGEX-6P-1; also called GST/Cul1C; GST/PfCul1C; source: E. coli BL21(DE3), purified (glutathione agarose, native conditions); not shown: GST, N-terminal, kept
T1 sequence (looked up): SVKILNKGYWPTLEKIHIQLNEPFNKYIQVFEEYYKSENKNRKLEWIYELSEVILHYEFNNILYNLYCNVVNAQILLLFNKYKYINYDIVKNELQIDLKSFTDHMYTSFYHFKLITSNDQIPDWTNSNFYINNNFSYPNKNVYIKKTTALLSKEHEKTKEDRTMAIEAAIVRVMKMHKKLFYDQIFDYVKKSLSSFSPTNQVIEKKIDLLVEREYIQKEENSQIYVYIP
Put plainly: far-Western, overlay or dot blot; dot blot protein overlay: different amounts of HisSkp, HisSUMO/Rbx or HisSUMO spotted on nitrocellulose, blocked (3% BSA in PBS-T), overlaid with 10 μg of GST or GST-tagged protein for 12 h at 4°C, detected with anti-GST antibodies. To be noted: both partners purified.

The target in assay [2] is T2, GST-tagged N-terminal of PfCullin-1 (1-300 aa) (P. falciparum, UniProt Q8IAU5 1-300).
T2 construct: P. falciparum Cullin-1 (PfCullin-1, PF3D7_0811000), N-terminal coding region, residues 1-300, in pGEX-6P-1; also called GST/Cul1N; GST/PfCul1N; source: E. coli BL21(DE3), purified (glutathione agarose, native conditions); not shown: GST, N-terminal, kept
T2 sequence (looked up): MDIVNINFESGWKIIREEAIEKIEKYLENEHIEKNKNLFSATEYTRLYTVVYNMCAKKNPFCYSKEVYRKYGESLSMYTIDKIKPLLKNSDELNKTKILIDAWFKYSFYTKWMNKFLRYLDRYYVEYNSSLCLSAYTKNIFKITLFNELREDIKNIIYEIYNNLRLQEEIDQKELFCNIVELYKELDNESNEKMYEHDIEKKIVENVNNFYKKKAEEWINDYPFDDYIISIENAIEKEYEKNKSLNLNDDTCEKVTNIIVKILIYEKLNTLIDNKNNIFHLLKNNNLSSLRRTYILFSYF
The assay is described as above. The conditions noted are these: both partners purified.

B1: 6×His/SUMO-tagged PfRbx1 (natural protein, P. falciparum, UniProt O77367 1-107, looked up)
chain: MADNITNDKRDIFKIHKWSAVAAWSWDISVDNCAICRNHIMDLCIECQAKTTDHENDKDKKIDKEGCTVAWGVCNHAFHLHCISRWIKARQVCPLDNTTWEFQKATD
notes: P. falciparum Rbx1 (PfRbx1, PF3D7_0319100), complete coding region, subcloned into pSMO; also called HisSUMO/Rbx; HisSUMO/PfRbx1; source: E. coli Rosetta-gami 2(DE3) pLysS, purified (Ni-NTA, native conditions); not shown: His6, N-terminal, kept; SUMO, N-terminal, kept
In the case of B1, the binding result in assay [1] is “binds”.

B2: 6×His-tagged PfSkp1 (natural protein, P. falciparum, UniProt Q8ID38 1-162, looked up)
chain: MKNDKIKLVSFEGDEFIVDKNTASMSTVIMNILEVMTAEEDTIPLPNIKTPILKKIIEYMEYHINNPADEIPKPLITSNLQDVVSSWDFDFVNTDKETLYELIEASNYLDIKPLLDLTCGKIASMMKDKTTEEIRAEFDIVNDFTREEEKQIREENRWCGDI
notes: P. falciparum Skp1 (PfSkp1, PF3D7_1367000), complete coding region amplified from genomic DNA, in pET28a; also called HisSkp; HisPfSkp1; source: E. coli Rosetta-gami 2(DE3) pLysS, purified (Ni-NTA, native conditions); not shown: His6, N-terminal, kept
For the molecule B2, the binding result in assay [2] was “binds”.
